Details: Pyrococcus furiosus (strain ATCC 43587 / DSM 3638 / JCM 8422 / Vc1), 60 °C, GdnHCl, Fluorescence, Tris, NaCl, transition: 2, reversible: yes, whole UniProt chain shown

B1: L-asparaginase wild type, Q8TZE8 (protein)
chain: MKILLIGMGGTIASVKGENGYEASLSVKEVLDIAGIKDCEDCDFLDLKNVDSTLIQPEDWVDLAETLYKNVKKYDGIIVTHGTDTLAYTSSMISFMLRNPPIPIVFTGSMIPATEENSDAPLNLQTAIKFATSGIRGVYVAFNGKVMLGVRTSKVRTMSRDAFESINYPIIAELRGEDLVVNFIPKFNNGEVTLDLRHDPKVLVIKLIPGLSGDIFRAAVELGYRGIVIEGYGAGGIPYRGSDLLQTIEELSKEIPIVMTTQAMYDGVDLTRYKVGRLALRAGVIPAGDMTKEATVTKLMWILGHTNNVEEIKVLMRKNLVGELRD
denaturant m value (pH 8): 5.12 kcal/mol/M | denaturant midpoint (higher = more stable) (pH 8): 3.04 M | unfolding free energy (pH 8): 15.7 kcal/mol | denaturant m value (pH 9): 0.9 kcal/mol/M | denaturant midpoint (higher = more stable) (pH 9): 1.99 M | unfolding free energy (pH 9): 1.6 kcal/mol
